Data taken from patent US20190045761.

Legend:
[1] = tested on: FAH 5.3 TALEN right (3') (synthetic construct); experiment: cell_activity; conditions: TALEN pair with HDR oligo (HindIII) in RG-KO pig fibroblasts, 16 bp spacer
[2] = tested on: FAH 5.3 TALEN left (5') (synthetic construct); experiment: cell_activity; conditions: TALEN pair with HDR oligo (HindIII) in RG-KO pig fibroblasts, 16 bp spacer

Sequence	activity (% of colonies positive) [1]	activity (% of colonies positive) [2]
GGTATGTCCCAGACC (double strand) [FAH 5.3 TALEN 3' half-site]	5.3	–
TCAGGGGCAAGGAGACT (double strand) [FAH 5.3 TALEN 5' half-site]	–	5.3
